Data: paper PMC8211105

Legend:
[1] = molecular target: Spa33^C, purified recombinant (S. flexneri); test: SEC; Spa33^C alone expressed in E. coli and purified by IMAC and Superdex 200 (20 mM Tris, 200 mM NaCl, pH 7.5); apparent homodimer
[2] = molecular target: MxiN with an N-terminal His6-tag, purified (S. flexneri) (UniProt Q6XVX6); test: BLI; His6-MxiN immobilised on Ni-NTA biosensor tips; untagged Spa33 at 400, 200, 100, 50, 25 and 12.5 µg/mL; PBS with 10% glycerol, 0.01% BSA, 0.002% Tween 20; 25°C; Octet RED96; 1:1 Langmuir model; KD from the equilibrium response (Req)

Row | Substance | stoichiometry N [1] | Kd [2] [nM]
1 | Spa33^C, purified recombinant (domain or fragment) | 2 | –
2 | Wild-type Spa33 heterotrimer (one Spa33^FL with two Spa33^C), purified, untagged (from UniProt P0A1K9 1-293) (complex) | – | 550
